The record followed here is patent publication US10849966B2, “Methods for treating netosis and neutrophil activation” (TRUSTEES OF BOSTON UNIVERSITY, priority 2017, dated 2020).

For assay [1], the target named is T1, DEspR on intact human cells (Homo sapiens, UniProt B0L3A2).
T1 construct: endogenous in cells; host or cells: intact human cells / 'DEspR+ human cells'
T1 sequence (B0L3A2 1-85): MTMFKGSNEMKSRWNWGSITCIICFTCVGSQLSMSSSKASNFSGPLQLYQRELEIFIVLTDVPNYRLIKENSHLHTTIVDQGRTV
Put plainly: hu6g8 binding to DEspR on intact human cells. The following applies: done in triplicate. The source says:
FIGS. 17A-17C depict anti-DEspR-mab (hu6g8 mab). FIG. 17A depicts a diagram of DEspR, murine precursor mabs and humanized IgG and IgG4 mabs. Hu6g8 is notated as 6g8g7-hu-IgG4 raised against epitope 2, spanning the putative binding domain.
Described herein is the development, characterization, and validation of a fully humanized anti-DEspR mAb with a S228P hinge-stabilized IgG4/kappa FC region, designated herein as hu-6g8 or […]. The hu-6g8 was designed for high binding affinity to DEspR+ human cells and inhibition of activated neutrophil survival. hu-6g8 is reactive in all species, having identical epitopes in human, primates and rodents, which facilitates preclinical and clinical studies using the therapeutic lead. […] (FIG. 6). Through recombinant DNA technology, hu-6g8 was designed with optimal biophysical properties via: a) avoidance of T-cell epitopes for low immunogenicity—‘deimmunized’, b) optimization of heavy and light chain interactions for stability of variable domains, and c) exclusion of destabilizing post-translational modification sites [deamidation, oxidation, acid-lability, inappropriate N-glycosylation, isomerization and pyroglutamate formation].
Described herein are the advantages of anti-DEspR mAb targeted AECs. DEspR, the dual endothelin1/signal peptide receptor,^9 is a validated target on human activated neutrophils and NETs. […]

For assay [2], the system named is Panc1-cancer stem cell pancreatic carcinomatosis xenograft. Put plainly: CSC-derived pancreatic carcinomatosis xenograft tumor model in nude rats, comorbidities. The assay is classed as in vivo, rat. The following applies: treatment start 3 weeks after Panc1-CSC injection; vs untreated. From the text:
FIG. 39 depicts a representative image of control untreated tumor rat (left panel) and ABTM-468 treated rat (right panel). Control rat was euthanized due to distress, treated rat was euthanized to obtain age- and tumor-duration-matched tumors. The xenograft tumor model was developed from Panc1-cancer stem cells injected into the peritoneal space 3 weeks prior to the start of treatment. T, tumors; GB, gall bladder.

Several values for one entry are separate records, joined by “and”; a condition that tells them apart may be missing. Equal entries are not always repeated.

Take “hu-6g8: fully humanized anti-DEspR mAb with a S228P hinge-stabilized IgG4/kappa FC region”: the EC50 (in general, the concentration that produces a half-maximal response) in assay [1] is < 5 nM and 4.2 nM. The “cancer comorbidities (gut ischemia, ascites, gut dysfunction)” value in assay [2] was “reduced gut ischemia, serous or hemorrhagic ascites, distended gut, and ischemic-hemorrhagic gut (black gut) and gut dysfunction”.
